Source: patent publication US20180271995A1, “A PROTEIN CONJUGATE COMPRISING MULTIPLE PHYSIOLOGICALLY ACTIVE POLYPEPTIDES AND AN IMMUNOGLOBULIN FC REGION” (HANMI PHARM. CO., LTD., priority 2015, published 2018)
Several values for one entry are separate records, joined by “and”; a condition that tells them apart may be missing. Identical values can stand only once.

How the values were obtained:
[1] = system: mouse-derived 3T3-L1 cell line differentiated into adipocytes; experiment: Glucose uptake test in 3T3-L1 cells differentiated into adipocytes (GOPOD residual glucose); assay type: cell-based; conditions: 3T3-L1 adipocytes, 24 hours; read-out: Glucose uptake (Insulin) EC50
Method: First, for analyzing the titer of insulin, a glucose uptake (or lipid synthesis ability) test was conducted using the mouse-derived 3T3-L1 cell line differentiated into adipocytes. […] The 3T3-L1 cell line was suspended in the medium for differentiation (DMEM containing 10% FBS), inoculated into a 48-well plate to a concentration of 5×10^4 cells/well, and cultured at 37° C. for 48 hours. […] The mixtures was added to each well in an amount of 250 μL/well after removing the existing medium.
For the glucose uptake test, the cells terminally differentiated into adipocytes were washed once with serum-free DMEM medium and serum-free DMEM medium was added into each well in an amount of 250 μL to induce serum depletion for 4 hours. […] Each of the thus-prepared samples was added to the cells in an amount of 250 μL, respectively, and cultured in a 5% CO2 incubator at 37° C. for 24 hours. For the measurement of the residual amount of glucose in the medium upon completion of cultivation, 200 μL of the medium was collected, diluted 5-fold with D-PBS, respectively, and subjected to GOPOD analysis (GOPOD Assay Kit, Megazyme, Cat. No. K-GLUC). The residual glucose concentration in the medium was calculated based on the absorbance of the standard glucose solution, and EC50 values for each of the samples with respect to glucose uptake ability was calculated and the result is shown in Table 9 below.

[2] = target: human insulin receptor β (human) (UniProt P06213); experiment: cell-based or functional assay
[3] = target: human GLP-1 receptor (human) (UniProt P43220); experiment: cell-based or functional assay

| IR-β phosphorylation EC50 [2] | cAMP assay EC50 [3] | Substance | EC50 [1] |
| --- | --- | --- | --- |
| – | – | human insulin | 9 nM and 11 nM |
| > 1000 nM | > 100 nM | Immunoglobulin Fc | – |
